These results are taken from paper PMC5177617, “Complement Protein C1q Interacts with DC-SIGN via Its Globular Domain and Thus May Interfere with HIV-1 Transmission” (Frontiers in Immunology, 2016).

Experiment [1] concerns the target soluble DC-SIGN tetramer (entire extracellular domain including the α-helical neck region) (UniProt Q9NNX6). In words: ELISA; DC-SIGN or DC-SIGNR (tetramer or monomer) coated (5, 2.5, 1.25, 0.625 µg/well, carbonate-bicarbonate buffer pH 9.6); ghA, ghB, ghC or mutants 2.5 µg/100 µl in 50 mM NaCl, 100 mM Tris-HCl pH 7.5, 5 mM CaCl2; 37°C […] then 4°C […]; detected with anti-MBP; percent binding against the wild-type module as 100%. For orientation: An ELISA detects its analyte on a solid surface through an enzyme-linked reagent.

Experiment [2] deals with soluble DC-SIGNR tetramer (entire extracellular domain including the α-helical neck region) (UniProt Q9H2X3). The description is as above.
The target in experiment [3] is T1, soluble DC-SIGN tetramer (entire extracellular domain including the α-helical neck region) (UniProt Q9NNX6 59-404).
T1 construct: DC-SIGN, entire extracellular domain (α-helical neck region and carbohydrate recognition domain); also called DC-SIGN ECD; tetrameric DC-SIGN
T1 sequence (looked up): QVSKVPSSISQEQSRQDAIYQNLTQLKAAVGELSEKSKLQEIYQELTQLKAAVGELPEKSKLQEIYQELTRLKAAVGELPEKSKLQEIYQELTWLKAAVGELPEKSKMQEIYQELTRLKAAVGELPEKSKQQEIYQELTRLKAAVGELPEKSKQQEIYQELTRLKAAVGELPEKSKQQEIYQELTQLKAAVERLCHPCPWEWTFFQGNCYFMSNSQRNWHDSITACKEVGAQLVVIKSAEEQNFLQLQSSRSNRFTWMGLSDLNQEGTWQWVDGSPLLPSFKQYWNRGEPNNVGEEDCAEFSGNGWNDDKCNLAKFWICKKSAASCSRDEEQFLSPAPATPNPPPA
In words: ELISA; DC-SIGN or DC-SIGNR (tetramer or monomer) coated (5, 2.5, 1.25, 0.625 µg/well, carbonate-bicarbonate buffer pH 9.6); ghA, ghB, ghC or mutants 2.5 µg/100 µl in 50 mM NaCl, 100 mM Tris-HCl pH 7.5, 5 mM CaCl2; 37°C 1.5 h then 4°C 1.5 h; detected with anti-MBP; percent binding against the wild-type module as 100%. Particulars: both partners purified.

The target of experiment [4] is T2, soluble DC-SIGNR tetramer (entire extracellular domain including the α-helical neck region) (UniProt Q9H2X3 71-399).
T2 construct: DC-SIGNR (DC-SIGN-related), entire extracellular domain (α-helical neck region and carbohydrate recognition domain); also called DC-SIGNR ECD
T2 sequence (looked up): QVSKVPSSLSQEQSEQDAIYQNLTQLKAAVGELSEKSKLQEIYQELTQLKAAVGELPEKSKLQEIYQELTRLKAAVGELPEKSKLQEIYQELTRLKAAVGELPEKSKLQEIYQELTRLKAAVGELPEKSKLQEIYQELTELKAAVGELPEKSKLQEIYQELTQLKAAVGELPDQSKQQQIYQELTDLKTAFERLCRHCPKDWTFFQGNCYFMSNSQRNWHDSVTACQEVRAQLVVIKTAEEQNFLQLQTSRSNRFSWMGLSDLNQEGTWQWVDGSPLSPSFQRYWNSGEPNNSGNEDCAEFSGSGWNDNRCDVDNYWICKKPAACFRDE
Described as above. The following applies: both partners purified.

For “ghA substitution mutant Arg^A162Ala (from UniProt P02745 23-245) (domain or fragment)”, the % binding (wild-type module = 100%) in experiment [1] turned out to be 77.7%; in experiment [2] it was 73.2%.

The molecule “ghA substitution mutant Arg^A162Glu (from UniProt P02745 23-245) (domain or fragment)” yielded a % binding (wild-type module = 100%) in experiment [1] of 66.4%. In addition, in experiment [2], the % binding (wild-type module = 100%) amounted to 94.8% and the % reduction in binding against wild-type ghA (at 5 µg of DC-SIGNR) stood at 15%.

“ghB substitution mutant ArgB114Ala (from UniProt P02746 28-253) (domain or fragment)”: the % binding (wild-type module = 100%) is 57.4% in experiment [1] and 61.4% in experiment [2]. The molecule also showed a % reduction in binding against wild-type ghB in experiment [1] of 80%.

With “ghB substitution mutant Arg^B114Gln (from UniProt P02746 28-253) (domain or fragment)”, in experiment [1], the % binding (wild-type module = 100%) turned out to be 52.5% and the % reduction in binding against wild-type ghB was determined as 80%. The same molecule returned a % binding (wild-type module = 100%) in experiment [2] of 50.3%.

For “ghB substitution mutant Arg^B129Ala (from UniProt P02746 28-253) (domain or fragment)”, the % binding (wild-type module = 100%) in experiment [1] is 75%; in experiment [2] it was 92.5%.

Regarding “ghB substitution mutant Arg^B129Glu (from UniProt P02746 28-253) (domain or fragment)”, the figures for the % binding (wild-type module = 100%) in experiment [1] and in experiment [2] were 93.9% and 137%, respectively.

Turning to “ghB substitution mutant Arg^B163Ala (from UniProt P02746 28-253) (domain or fragment)”, the % binding (wild-type module = 100%) in experiment [1] came to 68.8%; in experiment [2] it was 120%.

Take “ghB substitution mutant Arg^B163Glu (from UniProt P02746 28-253) (domain or fragment)”: the % binding (wild-type module = 100%) came out at 48.3% in experiment [1] and 65.7% in experiment [2].

On to “ghB substitution mutant His^B117Asp (from UniProt P02746 28-253) (domain or fragment)”, for which the % binding (wild-type module = 100%) in experiment [1] was found to be 36.4%; in experiment [2] it was 41%.

For “ghB substitution mutant Tyr^B175Leu (from UniProt P02746 28-253) (domain or fragment)”, in experiment [1], the % binding (wild-type module = 100%) was found to be 37.9%, the % decrease in binding against wild-type ghB (at 0.625 µg of DC-SIGN) was less than 90% and the % reduction in binding against wild-type ghB was found to be 82%. In experiment [2], this molecule registered a % binding (wild-type module = 100%) of 37.2% and a % decrease in binding against wild-type ghB (at 0.625 µg of DC-SIGNR) of less than 90%.

As for “ghC substitution mutant Arg^156Glu (from UniProt P02747 29-245) (domain or fragment)”, the % binding (wild-type module = 100%) in experiment [1] turned out to be 101%; in experiment [2] it was 75.8%.

As to “ghC substitution mutant His^101Ala (from UniProt P02747 29-245) (domain or fragment)”, the % binding (wild-type module = 100%) in experiment [1] came to 90.2%; in experiment [2], 113%.

For “ghC substitution mutant Leu^170Glu (domain or fragment)”, the % binding (wild-type module = 100%) turned out to be 78.3% in experiment [1] and 79.8% in experiment [2].

B1: recombinant globular head module ghA of human C1q, fused to maltose-binding protein (domain or fragment, UniProt P02745 110-245, looked up)
chain: KDQPRPAFSAIRRNPPMGGNVVIFDTVITNQEEPYQNHSGRFVCTVPGYYYFTFQVLSQWEICLSIVSSSRGQVRRSLGFCDTTNKGLFQVVSGGMVLQLQQGDQVWVEKDPKKGHIYQGSEADSVFSGFLIFPSA
notes: globular head region of the A chain of human C1q (ghA module); as I recall ghA is residues 88-223 of the mature A chain with MBP at the N-terminus; source: E. coli BL21, purified (amylose resin)
As to B1, the “% binding (wild-type module = 100%)” value in experiment [3] and in experiment [4] was 100% throughout.

B2: recombinant globular head module ghC of human C1q, fused to maltose-binding protein (domain or fragment, UniProt P02747 115-245, looked up)
chain: KQKFQSVFTVTRQTHQPPAPNSLIRFNAVLTNPQGDYDTSTGKFTCKVPGLYYFVYHASHTANLCVLLYRSGVKVVTFCGHTSKTNQVNSGGVLLRLQVGEEVWLAVNDYYDMVGIQGSDSVFSGFLLFPD
notes: globular head region of the C chain of human C1q (ghC module); as I recall ghC is residues 87-217 of the mature C chain with MBP at the N-terminus; source: E. coli BL21, purified (amylose resin)
For B2, the “% binding (wild-type module = 100%)” value in experiment [3] and in experiment [4] was 100% throughout.

B3: recombinant globular head module ghB of human C1q, fused to maltose-binding protein (domain or fragment, UniProt P02746 117-253, looked up)
chain: KATQKIAFSATRTINVPLRRDQTIRFDHVITNMNNNYEPRSGKFTCKVPGLYYFTYHASSRGNLCVNLMRGRERAQKVVTFCDYAYNTFQVTTGGMVLKLEQGENVFLQATDKNSLLGMEGANSIFSGFLLFPDMEA
notes: globular head region of the B chain of human C1q (ghB module); source: E. coli BL21, purified (amylose resin)
B3: the “% binding (wild-type module = 100%)” value in experiment [3] and in experiment [4] was 100% in each case.

B4: ghB substitution mutant Leu^B136Gly (domain or fragment)
chain: KATQKIAFSATRTINVPLRRDQTIRFDHVITNMNNNYEPRSGKFTCGVPGLYYFTYHASSRGNLCVNLMRGRERAQKVVTFCDYAYNTFQVTTGGMVLKLEQGENVFLQATDKNSLLGMEGANSIFSGFLLFPDMEA
Turning to B4, the “% binding (wild-type module = 100%)” value in experiment [3] came to 47.7%; in experiment [4] it was 54%.
